Ends that are not written are not given here.
Biological target: T1, CD11c on the surface of mouse bone marrow-derived dendritic cells (BMDCs) (mouse, UniProt Q9QXH4 20-1169)
T1 sequence (looked up): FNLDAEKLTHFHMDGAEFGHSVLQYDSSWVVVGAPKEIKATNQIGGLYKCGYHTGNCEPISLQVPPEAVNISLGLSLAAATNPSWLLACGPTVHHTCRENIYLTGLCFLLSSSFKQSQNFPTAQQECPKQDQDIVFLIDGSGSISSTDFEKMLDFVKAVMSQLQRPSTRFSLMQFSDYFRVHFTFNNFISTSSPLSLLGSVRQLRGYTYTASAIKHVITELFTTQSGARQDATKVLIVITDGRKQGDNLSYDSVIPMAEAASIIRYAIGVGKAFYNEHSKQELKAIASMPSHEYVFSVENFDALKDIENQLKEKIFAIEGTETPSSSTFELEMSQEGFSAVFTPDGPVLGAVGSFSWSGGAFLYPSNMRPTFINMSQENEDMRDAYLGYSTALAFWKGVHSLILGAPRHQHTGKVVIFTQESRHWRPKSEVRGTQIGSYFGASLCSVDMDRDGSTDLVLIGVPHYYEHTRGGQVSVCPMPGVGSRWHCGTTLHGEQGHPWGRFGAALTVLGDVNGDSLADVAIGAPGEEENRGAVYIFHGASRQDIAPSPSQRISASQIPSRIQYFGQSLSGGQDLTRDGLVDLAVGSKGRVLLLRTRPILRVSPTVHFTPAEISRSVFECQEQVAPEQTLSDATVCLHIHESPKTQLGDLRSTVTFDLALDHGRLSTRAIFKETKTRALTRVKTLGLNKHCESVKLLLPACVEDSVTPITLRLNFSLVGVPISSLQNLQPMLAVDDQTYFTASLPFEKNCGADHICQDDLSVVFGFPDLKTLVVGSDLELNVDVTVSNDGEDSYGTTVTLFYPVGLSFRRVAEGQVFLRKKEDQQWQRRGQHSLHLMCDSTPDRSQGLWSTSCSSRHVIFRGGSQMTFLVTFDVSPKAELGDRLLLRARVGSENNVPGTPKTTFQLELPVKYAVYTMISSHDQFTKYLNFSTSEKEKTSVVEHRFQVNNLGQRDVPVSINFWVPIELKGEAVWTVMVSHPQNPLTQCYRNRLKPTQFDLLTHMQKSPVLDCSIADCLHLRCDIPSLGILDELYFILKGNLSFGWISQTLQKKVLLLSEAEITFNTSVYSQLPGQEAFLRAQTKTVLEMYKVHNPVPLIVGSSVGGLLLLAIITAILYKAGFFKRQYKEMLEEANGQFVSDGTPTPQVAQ
Test: cell-based or functional assay

cellular uptake by BMDCs (flow cytometry, nile red-loaded PS, 1 h incubation): > 3 fold
B1: P-D2-PEG5-PS (PEG-bl-PPS polymersome displaying the P-D2-PEG5-Lys-PA targeting peptide construct) (peptide)
peptide: GGVTLTYQFAAGPRDK
modifications: not fully specified (N-terminus); also: displayed on PEG-bl-PPS polymersome

From patent US20200383917A1 (NORTHWESTERN UNIVERSITY, published 2020)
